Three molecules from US8507275B2, “Method of inducing differentiation of embryonic stem cells into hemangioblast” (Korea Advanced Institute of Science and Technology (Kaist), priority 2008, dated 2013) can be followed below.

The subject of test [1] is human embryonic stem cells. The experiment in a line: RT-PCR of mesoderm-specific marker genes in treated human embryonic stem cells. The settings on record: PD98059 20˜50 μM, BMP-4 10˜20 ng/ml; 3 days and 5 days; FIG. 2(A). The class given is cell-based. As to the method: The human embryonic stem cells cultured in Example 1 were cultured for 3 days in a conditioned medium that contained the MEK1/2 inhibitors, PD98059 and BMP-4 at a concentration of 20˜50 μM and 10˜20 ng/ml, respectively. Then, in order to confirm the differentiation of human embryonic stem cells into mesodermal cells, expression of the mesoderm-specific marker genes was examined by RT-PCR. For analysis of gene expression, total RNA was isolated from cells, and cDNA was synthesized using reverse transcriptase, followed by PCR (polymerase-chain reaction) using primers specific to each gene.
As a control group, sample was cultured only in the conditioned medium for 5 days. As experimental groups, cells were cultured for 3 days and 5 days in culture media that were prepared by adding each of PD98059 and BMP-4 to the unconditioned medium at a concentration of 20˜50 μM and 10˜20 ng/ml, respectively. In addition, cells were simultaneously treated with PD98059 and BMP-4, and examined for 3 days and 5 days.

Test [2] deals with hESC-derived vascular smooth muscle cells. The experiment in a line: Immunofluorescent staining of vascular smooth muscle cell-specific markers. The conditions noted are these: EGM with PDGF-BB; FIG. 5(b). The class given is cell-based, human. Here is the method:
In order to confirm the differentiation into vascular smooth muscle cell at protein level, expressions of the vascular smooth muscle cell-specific markers were examined by immunofluorescent staining. In order to stain the hESC-derived vascular smooth muscle cells with the vascular smooth muscle cell-specific markers, α-smooth muscle actin (α-SMA) and calponin, the sample was first fixed in 4% paraformaldehyde at room temperature for 20 min, and then washed with a PBST solution (0.1% Tween-20 in PBS) for 5 min three times. To allow permeabilization of antibodies into the nucleus, a permeating solution (0.1% Triton X-100 in PBS) was added to culture plates, and left at room temperature for 15 min. After 15 min, the permeating solution was removed, and 4% NGS (Normal Goat Serum) was added for blocking at room temperature for 1 hr. […] Next day, in order to examine expressions of the markers (α-SMA, calponin) under a fluorescence microscope, secondary antibodies against the marker antibodies (Alexa 488-conjugated Goat anti-mouse IgG and Alexa 594-conjugated Goat anti-Rabbit poly) were added, and left at room temperature for 1 hr. After 1 hr, the culture plates were washed with a PBST solution for 10 min five times, and a fluorescence microscope was used to examine their expressions.

Test [3] relates to CD34 positive cells (hESC-derived hemangioblasts). The experiment in a line: RT-PCR of vascular smooth muscle cell-specific markers in CD34 positive cells. The class given is cell-based, human. The settings on record: EGM with PDGF-BB 50 ng/ml, about 5 days; FIG. 5(a). Here is the method:
In order to differentiate CD34 positive cells into vascular smooth muscle cells, CD34 positive cells were cultured for about 5 days in EGM (Endothelial cell Growth Medium, clonetics, USA) containing PDGF-BB at a concentration of 50 ng/ml. Expressions of the vascular smooth muscle cell-specific markers were examined by RT-PCR. For analysis of gene expression, total RNA was isolated from cells, and cDNA was synthesized using reverse transcriptase, followed by PCR (polymerase-chain reaction) using primers specific to each gene.

As for `COc1cccc(-c2cc(=O)c3ccccc3o2)c1N` [PD98059, 2-(2-amino-3-methoxyphenyl)-4H-1-Benzopyran-4-one2-(2′-Amino-3′-methoxy)-flavone2-(2-amino-3-methoxyphenyl)-chromone, reference compound], in test [1], the “Expressions of the mesoderm-specific markers BRACHYURY, GOOSECOID, TBX-4, TBX-5 and TBX-6 (RT-PCR)” value is given as “not observed”.

B1: BMP-4: bone morphogenetic protein, growth factor used to regulate differentiation of embryonic stem cells (protein, UniProt P12644 293-408, looked up)
Bone morphogenetic protein 4: SPKHHSQRARKKNKNCRRHSLYVDFSDVGWNDWIVAPPGYQAFYCHGDCPFPLADHLNSTNHAIVQTLVNSVNSSIPKACCVPTELSAISMLYLDEYDKVVLKNYQEMVVEGCGCR
Turning to B1, the “Expressions of the mesoderm-specific markers BRACHYURY, GOOSECOID, TBX-4, TBX-5 and TBX-6 (RT-PCR)” value in test [1] is recorded as “not observed”.

B2: PDGF-BB: Platelet-derived growth factor-BB (protein, UniProt P01127 82-190, looked up)
Platelet-derived growth …: SLGSLTIAEPAMIAECKTRTEVFEISRRLIDRTNANFLVWPPCVEVQRCSGCCNNRNVQCRPTQVQLRPVQVRKIEIVRKKPIFKKATVTLEDHLACKCETVAAARPVT
As to B2, the “Expressions of the vascular smooth muscle cell-specific markers α-SMA and calponin at protein level (immunofluorescent staining)” value in test [2] is recorded as “observed”. Besides, in test [3], the “Expression of the vascular smooth muscle cell-specific markers SM22α, SM-MHC, PDGF-B receptor, α-SMA and calponin (RT-PCR)” value is recorded as “found to express”.
